# Experimental data as given in patent US9458427B2, “IFNγR2 compositions and methods of inhibiting neuronal cell death” (Case Western Reserve University, priority 2009, dated 2016).
# T1: human Bak (Homo sapiens, UniProt Q16611)
# T1 construct: expressed in transfected cells; host or cells: HEK293
# T1 sequence (Q16611 1-211): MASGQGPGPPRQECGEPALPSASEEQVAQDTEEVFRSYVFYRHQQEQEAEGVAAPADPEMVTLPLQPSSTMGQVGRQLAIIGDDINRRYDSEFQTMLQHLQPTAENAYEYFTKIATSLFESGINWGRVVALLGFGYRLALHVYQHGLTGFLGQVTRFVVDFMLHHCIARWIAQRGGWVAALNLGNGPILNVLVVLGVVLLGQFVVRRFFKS
# Columns and labels:
# [1] = tested on: HT1080 (IFNγR2 null mutant and JAK2 null mutant) cells; test: Etoposide-induced apoptosis in HT1080-derived IFNγR2 null and Jak2 null cells (Hoechst nuclear staining); format: cell-based, human; conditions: cells lacking IFNγR2 and Jak2, 10 μM etoposide for 24 h
# Description: HT1080 (wild type, IFNγR2 null mutant and JAK2 null mutant) cells were cultured in Dulbecco's Modified Eagle's Medium (DMEM) supplemented with 10% fetal bovine serum (FBS). HeLa, Human Embryonic Kidney (HEK) 293 and HEK293T cells were purchased from ATCC, and cultured in DMEM supplemented with 10% FBS. LNCap and PC3 cells were purchased from ATCC and cultured in DMEM F12 medium supplemented with 10% FBS. RWPE1 and RWPE2 were purchased from ATCC and cultured in keratinocytes-SFM plus supplements medium (Gibco). Primary mammary epithelial (4A100) cultures were derived from organoids isolated from discarded mammary tissue acquired from patients undergoing reduction mammoplasty surgery. Anonymized specimens were acquired from patients who had given written consent, through the Tissue Procurement and Histology Core Facility of the Case Comprehensive Cancer Center (Case), under a Case CCC IRB approved protocol. Primary epithelial cultures were grown in M87A+X medium. Human HME1 cells (Clontech) were grown in medium 171 with mammary epithelial growth supplement (Cascade Biologics) and penicillin-streptomycin.42 Human breast cancer cell line MDA-MD468 was cultured in RPMI, 5% FBS, supplemented with L-glutamine, penicillin-streptomycin and fungizone (Gibco). […]
# Cells were cultured overnight in DMEM supplemented with 10% FBS. […] Transfection efficiency was analyzed by the expression of the EGFP-tagged proteins.
# (§1) Apoptosis was induced by transfecting the cells with pcDNA3-human Bax, or pcDNA3-human Bak, or pcDNA3-human Bim EL, or by treatment with etoposide (10 μM) or staurosporine (100 nM). To determine the induction of apoptosis by different apoptotic stresses, cells were stained with Hoechst 33258 dye, and the numbers of cells with apoptotic nuclei were counted using fluorescence microscopy. Three hundred cells were analyzed in triplicate samples. […] Caspase activity were measured by using a fluorogenic caspase 3 substrate II (Calbiochem), IFNγR2 constructs were cloned in pEGFP-C2 (IFNγR2wild type, IFNγR21-295 and IFNγR2296-337) vector.
# Caspase 3 = test: Etoposide-induced Caspase 3 activation in IFNγR2 null cells; format: cell-based, human; conditions: 10 μM etoposide for 24 h, plasmid-mediated expression
# Description: as §1
# human Bim EL = test: Apoptosis induced by Bim overexpression in HEK293T cells; format: cell-based; conditions: 24 h after transfection
# Description: (§2) Cells were cultured overnight in DMEM supplemented with 10% FBS. The transfections were performed using […]® (Qiagen, Valencia, Calif.) in accordance with the manufacturer's instructions. Transfection efficiency was analyzed by the expression of the EGFP-tagged proteins.
# as §1
# (§3) For Bax, Bak or Bim EL overexpression, cells were transfected with either 1 μg pcDNA3-human Bax, 1 μg pcDNA3-human Bak, or 1 μg pcDNA3 human Bim EL, and 4 μg of pEGFP plasmid encoding IFNγR2, and the apoptosis or caspase activity was determined 24 h after the transfection.
# human Bak = target: T1, human Bak; test: Apoptosis induced by Bak overexpression in HEK293 cells; format: cell-based; conditions: 24 h after transfection
# Description: as §2, §1, §3
# Bax [2] = target: T2, Bax (Homo sapiens, UniProt Q07812); test: Staurosporine-induced Bax activation in HeLa cells (6A7 antibody immunostaining); format: cell-based; parameters: endogenous in cells; host or cells: HeLa; conditions: staurosporine 100 nM, 3 h
# Description: HeLa cells were transiently transfected with pEGFP-C2-IFNγR2 (wild type 1-295, or 296-337) using […]® (Qiagen, Valencia, Calif.) in accordance with the manufacturer's instructions. Four micograms of the plasmid were used to transfect cells cultured in 6-cm diameter dishes. After 24 h of transfection, the cells were treated with staurosporine (100 nM) for 3 h. Then, the cells were washed with phosphate buffer pH 7.4 (PBS), fixed using paraformaldehyde (1%), permeabilized with Triton X-100 (0.02%), blocked with goat serum, and the activation of Bax was analyzed by immunocytochemistry using monoclonal Bax 6A7 antibody (BDPharmingen) and ALEXA FLUOR® 568-labeled anti-mouse IgG secondary antibody (Invitrogen).
# Bax [3] = target: T2, Bax; test: Apoptosis induced by Bax overexpression in HEK293 cells (Hoechst nuclear staining); format: cell-based; parameters: expressed in transfected cells; host or cells: HEK293; conditions: HEK293 cells co-transfected with pcDNA3-h Bax and pEGFP-C2-IFNγR2 construct, 24 h after transfection
# Description: as §2, §1, §3
# T2 sequence (Q07812 whole entry): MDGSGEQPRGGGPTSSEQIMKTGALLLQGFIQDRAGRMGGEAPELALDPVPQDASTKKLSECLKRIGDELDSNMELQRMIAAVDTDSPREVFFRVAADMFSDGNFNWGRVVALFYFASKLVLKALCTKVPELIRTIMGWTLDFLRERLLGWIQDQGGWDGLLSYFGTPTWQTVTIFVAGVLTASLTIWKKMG
molecule,measurement,setting,value
"IFNγR2wild type: interferon gamma receptor beta chain, full length, expressed from pEGFP-C2 plasmid as EGFP fusion (protein, left off: large carriers, interferon gamma receptor beta chain, full length, expressed from pEGFP-C2 plasmid as EGFP fusion) APPDPLSQLPAPQHPKIRLYNAEQVLSWEPVALSNSTRPVVYQVQFKYTDSKWFTADIMSIGVNCTQITATECDFTAASPSAGFPMDFNVTLRLRAELGALHSAWVTMPWFQHYRNVTVGPPENIEVTPGEGSLIIRFSSPFDIADTSTAFFCYYVHYWEKGGIQQVKGPFRSNSISLDNLKPSRVYCLQVQAQLLWNKSNIFRVGHLSNISCYETMADASTELQQVILISVGTFSLLSVLAGACFFLVLKYRGLIKYWFHTPPSIPLQIEEYLKDPTQPILEALDKDSSPKDDVWDSVSIISFPEKEQEDVLQTL",Inhibition of etoposide-induced apoptosis,[1],able to inhibit etoposide-induced apoptosis
same,Inhibition of etoposide-induced Caspase 3 activation,Caspase 3,inhibited etoposide-induced Caspase 3 activation
same,Inhibition of apoptosis induced by Bim overexpression,human Bim EL,able to inhibit apoptosis induced by Bim overexpression
same,Rescue from apoptosis induced by Bak overexpression,human Bak,could not rescue cells from apoptosis induced by Bak overexpression
same,Inhibition of STS-induced Bax activation (6A7 Ab-positive cells in GFP-positive cells),Bax [2],inhibited STS-induced Bax activation
same,Inhibition of apoptosis induced by Bax overexpression,Bax [3],able to inhibit apoptosis induced by Bax overexpression
